Test results taken from patent CN113150137A.
Substitutions are numbered along the chain they refer to.

B1: 单克隆抗体7C10 (antibody, V domains shown)
VH: QVQLQQPGAELVRPGASVRLSCKASGYTFTNYWMNWVKQRPGQGLEWIGSINPSDGYTKYNQKFKDKATLTVDKSSSTAYLQLSSPTSEDSAVYYCTRKKVNYDYAMDYWGQGTSVTVSS
VL: DIVMSQSPSSLAVSVGEKVTMSCKSSQSLLYSSNQKNYLAWYQQKPGQSPKLLIYWASTRESGVPDRFTGSGSGTDFTLTISSVKAEDLAFYYCHQYYSYPYTFGGGTKLERK
B2: 单克隆抗体5B9 (antibody, V domains shown)
VH: EVQLVESGGGLVKPGGSLKLSCAASGFTFSSYAMSWVRQSPEKRLEWVADISSGGSYTYYPDTVTGRFTISRDNAKNTLYLEMSSLGSEDTAMYYCAREYGGGFDYWGQGTTLTVSS
VL: DIQMTQSPASLSASVGETVTITCRASGNIHNYLAWYQQKQGKSPQLLVYNAKTLADGVPSRFSGSGSGTQYSLKINSLQPEDFGSYYCQHFWSIPRTFGGGTKLEIK
B3: 单克隆抗体5G6 (antibody, V domains shown)
VH: B2 VH with S31N, S84T, G87R
VL: B2 VL with S85N

target: 重组NDM-1蛋白 (新德里金属β-内酰胺酶, 肺炎克雷伯菌) (肺炎克雷伯菌 (Klebsiella pneumoniae)) (UniProt C7C422); experiment: indirect ELISA, NDM-1 coated at 100 ng/well, purified antibody diluted 1:10000 to 1:2560000, positive if the ratio to the negative control is >2.1
Chain of UniProt C7C422 (C7C422 29-270 limits assumed): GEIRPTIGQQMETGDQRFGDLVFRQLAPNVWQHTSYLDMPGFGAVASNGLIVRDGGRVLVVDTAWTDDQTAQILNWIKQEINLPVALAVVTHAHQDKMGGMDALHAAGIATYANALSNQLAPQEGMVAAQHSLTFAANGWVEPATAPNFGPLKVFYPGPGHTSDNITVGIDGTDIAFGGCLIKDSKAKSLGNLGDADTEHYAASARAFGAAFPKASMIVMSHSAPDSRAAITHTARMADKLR

Binder | 效价 (ELISA titer, highest positive dilution) (fold dilution)
B1 | 600000
B2 | 1e+06
B3 | 1e+06
